Reference: a protein production outcome set (Wang et al. 2014)

Assay: label from the status in PepcDB records
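Note: failed if final PepcDB status was selected cloned or expressed and not failed if soluble or beyond.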

| Sequence | protein production |
| --- | --- |
| MALAVTSSSTAISGSSFSRSGASSESKALQICSIRLSDRTHLSQRRYSMKPLNAESHSRSESWVTRASTLIAPEVEEKGGEVEDFEQLAKKLEDASPLEIMDKALERFGDQIAIAFSGAEDVALIEYARLTGKPFRVFSLDTGRLNPETYRLFDAVEKQYGIRIEYMFPDAVEVQALVRNKGLFSFYEDGHQECCRVRKVRPLRRALKGLKAWITGQRKDQSPGTRSEIPIVQVDPVFEGLDGGVGSLVKWNPLANVEGADVWNFLRTMDVPVNALHAQGYVSIGCEPCTRPVLPGQHEREGRWWWEDAKAKECGLHKGNIKEEDGAADSKPAAVQEIFESNNVVALSKGGVENLLKLENRKEAWLVVLYAPWCPFCQAMEASYIELAEKLAGKGVKVAKFRADGEQKEFAKQELQLGSFPTILLFPKRAPRAIKYPSEHRDVDSLMSFVNLLR | failed |
| MADGVLAVSQEGFNTLQSYNVGEKYTADLWIQQGGLKSTASVVSFSVDKALLDSMNIADGTSYELLPADCYQLTKSSVDIPANERLLKGELTYDPAKIQELSGYDHLKYVLPLRATSSGMPFVSGRSVLLLGFKVSEPIVTIMNAGVEEINLAEVKELPVQIGVPFTNKWEISCRLESRQSVIDAYNTAHGTYFSMLPSDAYVTPETPILHSGVNQVTATYKLKDDILPGNYMLPVQIAEVTSDATIRADKDVYAAYSIIKEGDKLSKTDWKIVSFTTEEASGEGSNNGHAKHLIDGNIETFWHSRWQGGSDPLPYEIIIDMNHRVKIAQIELLPRGRGSNNPIKVVRFEASEDGTNWESIGQFGFTNQDAALKYYVKSSTARYIKLVIPDGVGNGTVAAIRELDVRGTVVNLEHHHHHH | not failed |
| MTLPQTMKAAVVHAYGAPLRIEEVKVPLPGPGQVLVKIEASGVCHTDLHAAEGDWPVKPPLPFIPGHEGVGYVAAVGSGVTRVKEGDRVGIPWLYTACGCCEHCLTGWETLCESQQNTGYSVNGGYAEYVLADPNYVGILPKNVEFAEIAPILCAGVTVYKGLKQTNARPGQWVAISGIGGLGHVAVQYARAMGLHVAAIDIDDAKLELARKLGASLTVNARQEDPVEVLQRDIGGAHGVLVTAVSNSAFGQAIGMARRGGTIALVGLPPGDFPTPIFDVVLKGLHIAGSIVGTRADLQEALDFAGEGLVKATIHPGKLDDINQILDQMRAGQIEGRIVLEM | not failed |
| MQYLSILEALGGLGVFILGMKTMSEGLQKIAGDRFRRHLERIAGNRLTAALLGSTLSSLLQSSSAACIITVGFINAGLISLYQALGILLGTGIGTTLAVQFIAFKISSFALPAVFVGVCLRCFLRRRRWVNAGELILGAGLLFLGLRIMESNLQPLQEYAIVFTHQDMFVSKRIAAVLFGATLTLLVQSGSTAIAVIMALAGSSLVSFETGAAMVIGELLGTSVITAFASIGGTLEAKRTVFFYFMVNLLAVVVVMLVFPSYLSFVTYISPEDIASSAGISRVLANTHTLFSIMSAVIFLPLIGFFARTAPRIIPGSERASSVEARTVFIDPRVLNTPPIALLQARSELRRMAGISLTMYSEMVEQFFRYDARKAVGIRQKENAVDILQRDLTDFLVSLSRRELAPEASMEIPVMLQLIGELEHVADQSEAVLDYLRRKKEEKLLFSNAAMTEIRHLARTVEKLVDLAVETMDNPPPDAVEQGRSLRDDVGRQREAMLDGHIKRLSAGKCSVRAGIIYADMITAFVKIADSSVTIIETRKEFT | failed |
| MVIDQTDPIYVLFHDEEWGVPVRDDKKLFELLVFSQALAEFSWPSILRRRDDFRKLFEEFDPSAIAQFTEKRLMSLRVNGCLILSEQKLRAIVENAKSVLKVKQEFGSFSNYCWRFVNHKPLRNGYRYGRQVPVKSPKAEYISKDMMQRGFRCVGPTVMYSFLQASGIVNDHLTACFRYQECNVETERETKSHETETKLDLHSPLLV | failed |
| MQFFTSDTHFFHKDLLGDSDFAPRPFASVDEMNQTIIDNWNARVAETDTVYHLGDIALYFTKPAIKSDEAVFNVLSQLNGHLELIKGNHDSRALFKYLAAHNFSDHGQPKFAFHDVGALIKYDHRQYYLTHYPMMLGIVNQIINLHGHIHHYAVPVKENINVGVDTPEQRYLTTSVPFGTPFSPTEIEQMVTGKAQEFREKQLEHHHHHH | failed |
| MRKYEIMYIIRPGVEEEAQKALVERFAGVLTNNGAEIINTKEWGKRRLAYEINDLREGFYMILNVNANAEAINEFDRLAKINEDILRHIVVKEEEK | not failed |
| MRNLTFLTRCKPLAASVLALMLLGGAAKSFANNDLPDLGTAAVNTFSLEKEMIYGDAYMRVIRSSAPMLNDPVLSQYLTELGNKLVAHATGVKTPFYFFLLQNDEINAFAFFGGHVAVHTGLFLNADNESELASVLGHEITHVTQRHLARSLEAQQKTGPATVAGLLGAILLTIAVPQAGMAALATTQAMATQSKINYTRLHEKEADRIGMQILVDAGFDPNASAEFFGKLASRYRFTTTPPQMLLTHPLPESRISEARDRAQQYPHRYVPDNLNFQLAKARIQVRFSSFSDDAVLSMFEKQLNKQTYGFKEAALYGKALALFRLKKFDESEKIVDELLKIDDNNLFYIDTKTDLLNERKDYAQAIKLLEAQRNLKPTSQVINANLANIYIEAGEPAKAIPLLEDMIFLDKQNQLPYQLLNLAYKKLGNPGMEYFSNAELMALGANYKGAIDQLNFAYRASEGNQLQLARIEARIRQFKQADREMDALKLEHHHHHH | failed |
| DSFKTKSGKELTITFIKHGSLMLTYDNHSIQVDPVSEYADYTTFPKADIILITHEHGDHLDPKAIQAVEKSDTEIIANENSQKKLGKGKVLKNGDTDTSISYMKIEAVPAYNTTPGRDKYHPRHRDNGYILTFDGLRVYIAGDTEDIPEMKDLKDIDIAFLPVNQPYTMTVSQAAKAARMFSPKILYPYHYGDTKIGELKDALKDSGIDVRIRELQ | not failed |
| MKSRREQSIEEAIVANYLKMMIDNVNVWPRHFLRSEDVYCKNPWTLFVTRDPIILHFGRYFFVNRSVNSGLTDGCEYGCWRIIGRDRVIKSVTTGKILGLKKVYKFCETDRKPKSVFKFLEKEKRRVRDRRIWAMEEYRFASTWKQDYVICKIRRLYPQPFDYMLAQHIRGYYK | failed |
| PCHHRITLDEFYQLFTNNKNIHLIDVRSTKEHQIQNIGGIVLPLDELPQRLHELNPNRLIILYCQSGTRSKMALDILLKAGFASVKYIENGLKGVTDNYNKDMPQ | failed |
| MDFDTIQIDYEKEETVMIGRAADKIFTRVFIFLIMTVYFWIYTVAGLVVLGIGPAFRTVTEMHMDKQWDYRLYHFKEGWQRFKRHFWQMNLHTWLFLGVGAVLAYNLYLSLSIHTLWIIFIQFIIVFALILDFSLAIFTVMLRSRYDVAFKDAIKLAIVQFFSNFTQLLTFIIGTIVLIVISLKWPGMILFLSPGIYMVGADRLSRRWYDKIDKMLGAV | failed |
| MEKHSHEHHHHHDISSISKNKLFFVIIFNFIIALAEVIGGSISGSLSLISDALHNLSDTASLILSYVSIKISEKPKNKAKTYGYKRANILAAFINSAALIGISIFLGVQALEKLTSLKKINANIVIVVALIGLLGNFLSVIILKKGAEKSLNVRSSYLHMLSDAMASLAVIISGVFIKYFAIYWIDSVLTIFINMLILKSSYNILKESINILMQTTPVNLDMDDVKEQLLKIKEIKGVHHFHIWTLDENNIVLEGHIEIDDILVSETRAISDKIEHILNEDFHITHVVIQFESTSCEDNICKI | failed |
| MSIEERLEALEKEIQKMKDIEEIKKLKGQYFRCLDGKFWDELETTLSPNIVTSYSNGKLVFHGPKEVTDYFKKAMPREEISMHMGHTPEITIDSETTATGRWYLEDKLIFTEESKYAGSGVNGGAFYTDKYEKVDGKWYILETGYLRVYEEHFMRDPKIKITMNMHKTK | not failed |
| MLQLDHRHSIELHFAIPVSLPGCLSGAEVVADWPLDARSSGRQTSVSEAAGAGPVDRMNKEHYPFRMFLLGPFALVDAGGRSVAPKSKKAQALLAMLALSTRGSRSRIWLRDKLWSDRSDDQAAASLRQALLDIHKSLGPARDLLIADKNTVWLDTDRLLLDTDLMIRTERSPDQVTDELLEGIDIRDPEFEDWLALERQNWYRRLDEGQVHDVFEPRQQPSRDIAKHSALLPLTGAPDTSRTGKPVDIASSGPYGRRVGGDWQWMMALQSPIVVGAGEGGQIAATRFQNLIAKAIIDGLGFGVTDLSFTLPHIEENEQQISLPICLQLRLTFDGDMVLIELVMKHLINNRIHWLGSQAINRTQFERGEFGIAAALISQAVDQLAYFQEIQATDSRLSQDGLLIDAVNAIFRLSRDDLDNAERRLEEQIQYQPRSSTFAWLSFIRTFQVGQRFNALDAHLIEEAQAYARKALELDPQNSVSLALVGHVHSFLFGEYDYAANLFEKSIRLNPALPLGWDLYAMLHCYAGQPDKAVAMARWVQELGVYSPHKYYFDTTKCIAAALAGDHAAAITAGEEALRARPNFNSLLRYLASSHAHSNDLGSARHYLQRLEAVEGGFSINDFRGSGYPLLDTGGGQILIDGLLKAGAKLR | failed |
| MTKKILTTPIKDEDLADIKAGDIIYLNGHIVTCRDVAHRRLIEGGRELPVNVAGGAILHAGPIVRPIKGTEDKFEMVSVGPTTSMRMEKFEKEFIAKTGVKLIVGKGGMGKGTEEGCMEHKALHCVFPAGCAVVAAVCVEEIEDAQWRDLGMPETLWVCRVKEFGPLIVSIDTHGNNLFEQNKVIFNQRKEIVADEICKHVSFIK | failed |
| MPAPAATYERVVYKNPSEYHYMKVCLEFQDCGVGLNAAQFKQLLISAVKDLFGEVDAALPLDILTYEEKTLSAILRICSSGLVKLWSSLTLLGSYKGKKCAFRVIQVSPFLLALSGNSRELVLD | not failed |
| MKRIKTRAITLLALCIALNIVGSNIALMLKLPIYLDSIGTVLAAAVFGPLGGMLAGGATGVIVGATTDLYSLFFMPVQLLTGLVAGLLYRRIKPGTWRSNWWLAGVISLPGTLLSTAITVILFHGITSSGSSMLVQLLLGTGMGKTMAVFLIQVGTDYLDRFITVYVVALVYRALRYKLPQAN | failed |
| MAKKVAVLAVNPVNGCGLFQYLEAFFENGISYKVFAVSDTKEIKTNSGMVLIVDDVIANLKGHEDEFDALVFSCGDAVPVFQQYANQPYNVDLMEVIKTFGEKGKMMIGHCAGAMMFDFTGITKGKKVAVHPLAKPAIQNGIATDEKSEIDGNFFTAQDENTIWTMLPKVIEALKLEHHHHHH | not failed |
| MVLLLDYWDQWAEAYRINGKSINTVYRYKLFRKHLKSRFDGRKLNSIRPIEWQKFINDFAAGKDRKEKTTRKRPRERSKDIVTKMNSYVRGMVKAAINERILFSDFTFGTKTSGVRSSGKVKVLEHHHHHH | failed |
| MKGKEIMEIKRILVSRTDKIGDLVLSIPSFFMLKKMYPNAELVVIVRKYNVDIVKNLPYIDRIVIIDEYSKAELLEKIAYFKADVFIALYNDSYIASLARASKAKIKIGPISKLSSFFTYNKGVLQKRSLSLKNEGQYNLDLVTKLDRKRFAILYELNTKLILTDENKKVADVYFKENSIEGKTLVVNPFIGGSAKNITDEQYISILKKIKEKMPDLNIIITSYTTDEERTEKLCKDIGKDKIFAFSNGASILNTASIIDRADVYFGASTGPTHIAGALGKKIVAIYPHKKTQSPTRWGVLGNSNVRYIIPDENNPNEDYKNPYFDNFTKDMEDKVVKAILEALK | failed |
| EEKYVTVQPYTSQSKDEIGFEKGVTVEVIRKNLEGWWYIRYLGKEGWAPASYLKKAKD | not failed |
| MNHNYVEVKYPAIFRDEGTYWDVRFPDVPAAQTFGASVQVAADNAANALAIALFEQSLPPASDPQYWRLASTEFVVWITMADVQFGPGADTPEPMN | not failed |
| MLTTFIVNSPILASIVFTLITIATYQFASACQQKWQYIWLNPMLFTISILVPFLLLIDINYQEYSQTTEILNLLLEPAIVALGMPLYQQFKQIRFYWREMTAILVLGITVVITVSFLLAMWLIKAPEIAIALSLKSVTTPIGITLTEQLFGDSSITAFAILIAGLFGALLGPQWLSFIGINSAKAQGLAIGSASHVIGTAVLVRKSAEHGAYSSVALILSAILTALISPWLIPLLQRLVT | failed |
